B1: T4pol: T4 DNA polymerase, DSB-end blunting enzyme co-transferred with Cas9 and sgRNA (protein, UniProt P04415 1-898, looked up)
DNA-directed DNA polymerase: MKEFYISIETVGNNIVERYIDENGKERTREVEYLPTMFRHCKEESKYKDIYGKNCAPQKFPSMKDARDWMKRMEDIGLEALGMNDFKLAYISDTYGSEIVYDRKFVRVANCDIEVTGDKFPDPMKAEYEIDAITHYDSIDDRFYVFDLLNSMYGSVSKWDAKLAAKLDCEGGDEVPQEILDRVIYMPFDNERDMLMEYINLWEQKRPAIFTGWNIEGFDVPYIMNRVKMILGERSMKRFSPIGRVKSKLIQNMYGSKEIYSIDGVSILDYLDLYKKFAFTNLPSFSLESVAQHETKKGKLPYDGPINKLRETNHQRYISYNIIDVESVQAIDKIRGFIDLVLSMSYYAKMPFSGVMSPIKTWDAIIFNSLKGEHKVIPQQGSHVKQSFPGAFVFEPKPIARRYIMSFDLTSLYPSIIRQVNISPETIRGQFKVHPIHEYIAGTAPKPSDEYSCSPNGWMYDKHQEGIIPKEIAKVFFQRKDWKKKMFAEEMNAEAIKKIIMKGAGSCSTKPEVERYVKFSDDFLNELSNYTESVLNSLIEECEKAATLANTNQLNRKILINSLYGALGNIHFRYYDLRNATAITIFGQVGIQWIARKINEYLNKVCGTNDEDFIAAGDTDSVYVCVDKVIEKVGLDRFKEQNDLVEFMNQFGKKKMEPMIDVAYRELCDYMNNREHLMHMDREAISCPPLGSKGVGGFWKAKKRYALNVYDMEDKRFAEPHLKIMGMETQQSSTPKAVQEALEESIRRILQEGEESVQEYYKNFEKEYRQLDYKVIAEVKTANDIAKYDDKGWPGFKCPFHIRGVLTYRRAVSGLGVAPILDGNKVMVLPLREGNPFGDKCIAWPSGTELPKEIRSDVLSWIDHSTLFQKSFVKPLAGMCESAGMDYEEKASLDFLFG
B2: RecJ: RecJ exonuclease, blunting enzyme co-transferred with Cas9 and sgRNA (protein)
chain: TVDNGISSHAGVEHARSLGIPVIVTDHHLPGDTLPAAEAIINPNLRDCNFPSKSLAGVGVAFYLMLALRTFLRDQGWFDERNIAIPNLAELLDLVALGTVADVVPLDANNRILTWQGMSRIRAGKCRPGIKALLEVANRDAQKLAASDLGFALGPRLNAAGRLDDMSVGVALLLCDNIGEARVLANELDALNQTRKEIEQGMQIEALTLCEKLERSRDTLPGGLAMYHPEWHQGVVGILASRIKERFHRPVIAFAPAGDGTLKGSGRSIQGLHMRDALERLDTLYPGMMLKFGGHAMAAGLSLEEDKFKLFQQRFGELVTEWLDPSLLQGEVVSDGPLSPAEMTMEVAQLLRDAGPWGQMFPEPLFDGHFRLLQQRLVGERHLKVMVEPVGGGPLLDGIAFNVDTALWPDNGVREVQLAYKLDINEFRGNRSLQIIIDNIWPI
B3: EXOG: single-strand DNA specific nuclease, blunting enzyme co-transferred with Cas9 and sgRNA (protein)
chain: WSRGHMAPAGNNKFSSKAMAETFYLSNIVPQDFDNNSGYWNRIEMYCRELTERFEDVWVVSGPLTLPQTRGDGKKIVSYQVIGEDNVAVPSHLYKVILARRSSVSTEPLALGAFVVPNEAIGFQPQLTEFQVSLQDLEKLSGLVFFPHLDRTSDIRNICSVDTCKLLDFQEFTLYLSTRKIEGARSVLRLEKIMENLKNAEIEPDDYFMSRYEKKLEELKAKEQSGTQIRKPS
B4: MGME1: single-strand DNA specific nuclease, blunting enzyme co-transferred with Cas9 and sgRNA (protein)
chain: LQQTMTKQQVFLLERWKQRMILELGEDGFKEYTSSFHVCDHVYMKNLARDVFLQGKRFHEALESILSPQETLKERDENLLKSGYIESVQHILKDVSGVRALESAVQHETLNYIGLLDCVAEYQGKLCVIDWKTSEKPKPFIQSTFDNPLQVVAYMGAMNHDTNYSFQVQCGLIVVAYKDGSPAHPHFMDAELCSQYWIKWLLRLEEYTEKKKNQNIQKPEYSE
B5: POLL: DNA polymerase λ, DSB-end blunting enzyme co-transferred with Cas9 and sgRNA (protein)
chain: CLQERRLVDVAGFSIFIPSRYLDHPQPSKAEQDASIPPGTHEALLQTALSPPPPPTRPVSPPQKAKEAPNTQAQPISDDEASDGEETQVSAADLEALISGHYPTSLEGDCEPSPAPAVLDKWVCAQPSSQKATNHNLHITEKLEVLAKAYSVQGDKWRALGYAKAINALKSFHKPVTSYQEACSIPGIGKRMAEKIIEILESGHLRKLDHISESVPVLELFSNIWGAGTKTAQMWYQQGFRSLEDIRSQASLTTQQAIGLKHYSDFLERMPREEATEIEQTVQKAAQAFNSGLLCVACGSYRRGKATCGDVDVLITHPDGRSHRGIFSRLLDSLRQEGFLTDDLVSQEENGQQQKYLGVCRLPGPGRRHRRLDIIVVPYSEFACALLYFTGSAHFNRSMRALAKTKGMSLSEHALSTAVVRNTHGCKVGPGRVLPTPTEKDVFRLLGLPYREPAERDW

Assays:
Type in all cases: cell-based
PCSK9 exon 12 = experiment: Indels editing in PCSK9 gene using Cas9 and blunting enzymes; conditions: HEK293T cells, Cas9 + PCSK9 exon 12 sgRNA + blunting enzyme; for percentage of +1 insertion: Cas9 and sgRNA alone 14.4%; for percentage of +1 insertion / percentage of −1 deletion: FIGS. 11A-11H; for +1 insertion frequency: control 9.4%, FIGS. 12A-12B; for percentage of −1 deletion: Cas9 and sgRNA alone 4.3%
Protocol: (§1) To test for the efficiency of inducing indels in a target gene using Cas9 and blunting enzymes, Cas9 and PCSK9 exon 12 targeting sgRNA were co-transferred into cultured mammalian cells in combination with DNA polymerase μ (POLM), EXOG, T4 DNA polymerase (T4pol), DNA polymerase λ (POLL), MGME1, RecJ exonuclease (RecJ) or Nuclease S1 (nucS). Cas9 and sgRNA alone served as the negative control. The occurrence of indels for the control and each of the combinations was measured. HEK293T cells were used.
Results for each of the combinations are presented in FIGS. 11A-11H and comparisons between the control and blunting enzymes are presented in FIGS. 12A-12B.

GYPB gene = experiment: Indels editing in GYPB gene using Cas9 and blunting enzymes; conditions: cultured mammalian cells, Cas9 + GYPB sgRNA + blunting enzyme; for percentage of +1 insertion mutations: Cas9 and sgRNA alone 10.5%, FIGS. 13A-13H
Protocol: as §1, with “GYPB” for “PCSK9 exon 12”, “measured.” for “measured. HEK293T cells were used.”

TPH2 exon 9 = experiment: Indels editing in TPH2 gene using Cas9 and blunting enzymes; conditions: cultured mammalian cells, Cas9 + TPH2 sgRNA + blunting enzyme; for percentage of +1 insertion mutations: Cas9 and sgRNA alone 0%, FIGS. 14A-14H
Protocol: as §1, with “TPH2” for “PCSK9 exon 12”, “POLM,” for “DNA polymerase μ (POLM),”, “polymerase,” for “DNA polymerase (T4pol),”, “measured.” for “measured. HEK293T cells were used.”

Row | Molecule | percentage of +1 insertion (PCSK9 exon 12) [%] | percentage of +1 insertion mutations (GYPB gene) [%] | percentage of +1 insertion mutations (TPH2 exon 9) [%] | +1 insertion frequency (PCSK9 exon 12) [%] | percentage of −1 deletion mutations (GYPB gene; Cas9 and sgRNA alone 1.7%, FIG. 13D) [%] | percentage of −1 deletion mutations (TPH2 exon 9; Cas9 and sgRNA alone 13.2%, FIG. 14D) [%] | percentage of −1 deletion (PCSK9 exon 12) [%]
1 | POLM: DNA polymerase μ, DSB-end blunting enzyme co-transferred with Cas9 and sgRNA (AIYLVEPRMGRSRRAFLTGLARSKGFRVLDA) | 19.6 | 13.7 | 12.5 | – | – | – | –
2 | B1 | 36.75 | 13.4 | – | 30.3 | 9.05 | 36.7 | –
3 | B2 | – | – | – | – | – | – | 5.5
4 | B3 | – | – | – | – | – | – | 5.05
5 | B4 | – | – | – | – | – | – | 6.35
6 | B5 | 39.55 | 22.1 | 2.95 | 35.0 | – | – | –
